# Data from paper PMC8432889.
# Molecular target: β-PIX (endogenous, Hap1 cells) (human (endogenous in Hap1)) (UniProt Q14155)
# UniProt Q14155, sequence (Q14155 whole entry): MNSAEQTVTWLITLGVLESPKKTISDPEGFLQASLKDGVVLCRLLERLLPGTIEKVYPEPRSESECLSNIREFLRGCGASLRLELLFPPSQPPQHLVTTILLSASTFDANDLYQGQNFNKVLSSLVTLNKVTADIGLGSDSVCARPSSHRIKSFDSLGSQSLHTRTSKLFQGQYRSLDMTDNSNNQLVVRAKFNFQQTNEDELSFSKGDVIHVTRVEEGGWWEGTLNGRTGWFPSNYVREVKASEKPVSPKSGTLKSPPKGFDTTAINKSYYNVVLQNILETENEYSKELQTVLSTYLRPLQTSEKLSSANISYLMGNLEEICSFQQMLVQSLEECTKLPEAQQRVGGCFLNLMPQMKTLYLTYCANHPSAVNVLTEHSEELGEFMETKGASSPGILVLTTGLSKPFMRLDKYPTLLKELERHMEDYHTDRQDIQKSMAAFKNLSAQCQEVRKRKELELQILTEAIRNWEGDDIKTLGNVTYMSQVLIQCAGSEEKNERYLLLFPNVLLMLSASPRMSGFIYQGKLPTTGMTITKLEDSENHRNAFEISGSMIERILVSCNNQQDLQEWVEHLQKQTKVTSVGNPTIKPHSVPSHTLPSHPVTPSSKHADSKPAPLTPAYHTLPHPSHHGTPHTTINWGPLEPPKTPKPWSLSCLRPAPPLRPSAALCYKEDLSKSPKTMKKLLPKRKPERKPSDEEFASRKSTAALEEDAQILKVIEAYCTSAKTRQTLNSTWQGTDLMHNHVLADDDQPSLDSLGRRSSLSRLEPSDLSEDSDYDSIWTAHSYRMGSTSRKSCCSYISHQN
substance,measurement,value
"Emerald-tagged PAK1, full length (from UniProt Q13153 1-545) (enzyme)","Salmonella invasion into WT Hap1 cells treated with the inhibitor peptide PAK18 (PAK residues 187–203; 5 μM), percent impeded; negative control peptide had no effect",55%
